Source: article PMC10092763

Molecular target: PAX2 (UniProt Q02962)
Test: co-IP, FLAG-PAX2 with HA-AFF4
Conditions: reference: wild type; sites S388

AFF4 (from UniProt Q9UHB7) S388A
binding against the reference: weaker
